Laboratory results published in paper PMC10556103, “Autoantibody binding and unique enzyme-substrate intermediate conformation of human transglutaminase 3” (Nature Communications, 2023).

Tests used:
Assay in all cases: crystal structure; TG3 form mixed with Fab DH63-B02 at 1:1.1 molar ratio, complex purified by SEC; crystals in 0.1 M HEPES-MOPS pH 7.1, 16-22% ethylene glycol, 8-11% PEG 8000, 6-10 mM CaCl2, 3-10 mM MgCl2; three Ca2+ bound
Settings in all cases: both partners purified
[1] = target: T1, dispase-cleaved TG3 (N-terminal and core domains with C1C2 non-covalently associated) (Homo sapiens, UniProt Q08188)
T1 construct: human transglutaminase 3, N-terminal and catalytic core domains (N-core, 51 kDa) left by dispase cleavage in the loop 461-473; human transglutaminase 3, the two C-terminal beta-barrel domains C1C2 (26 kDa) left by dispase cleavage in the loop 461-473; TG3 was His-tagged before cleavage; source: Sf9 insect cells, purified (Ni-NTA); cleaved with dispase I, SEC

[2] = target: T2, N-terminal and core domains (N-core) of cleaved TG3 (Homo sapiens, UniProt Q08188)
T2 construct: human transglutaminase 3, N-terminal and catalytic core domains (N-core, 51 kDa) left by cleavage in the loop 461-473; also called catalytic core domain; catalytic domain; source: Sf9 insect cells, purified (Ni-NTA); cleaved with dispase I or cathepsin L, SEC

[3] = target: T3, zymogen transglutaminase 3 (TG3), human recombinant (Homo sapiens, UniProt Q08188)
T3 construct: human transglutaminase 3, uncleaved zymogen (79 kDa), with N-terminal, catalytic core, C1 and C2 domains; the loop 461-473 is intact; also called TG3 zymogen; zymogen TG3; source: Sf9 insect cells, purified (Ni-NTA)

[4] = target: T4, Z-DON-associated TG3 without C1C2 (enzyme-substrate intermediate conformer) (human, UniProt Q08188, Cys273 alkylated by Z-DON (Z-DON-Val-Pro-Leu-OMe))
T4 construct: human transglutaminase 3, N-terminal and catalytic core domains (N-core, 51 kDa) left by cleavage in the loop 461-473; TG3 was His-tagged before cleavage; The cleavage sites of dispase and cathepsin L may differ; also called cleaved TG3 + Z-DON; source: Sf9 insect cells, purified (Ni-NTA); cleaved with dispase I or cathepsin L, incubated with Z-DON, SEC
T4 sequence (Q08188 2-461): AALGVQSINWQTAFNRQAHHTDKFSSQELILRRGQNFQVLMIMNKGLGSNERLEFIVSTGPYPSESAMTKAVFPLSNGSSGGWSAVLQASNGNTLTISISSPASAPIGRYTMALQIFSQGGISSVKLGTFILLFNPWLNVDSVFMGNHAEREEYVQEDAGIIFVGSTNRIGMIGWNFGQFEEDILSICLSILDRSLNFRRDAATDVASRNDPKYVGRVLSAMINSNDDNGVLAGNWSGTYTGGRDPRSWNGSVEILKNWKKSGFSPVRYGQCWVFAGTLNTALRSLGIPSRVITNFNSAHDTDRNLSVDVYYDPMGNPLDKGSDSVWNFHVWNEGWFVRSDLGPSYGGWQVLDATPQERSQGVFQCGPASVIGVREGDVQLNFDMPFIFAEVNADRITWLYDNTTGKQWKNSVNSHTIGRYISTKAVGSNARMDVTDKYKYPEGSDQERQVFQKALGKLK

T2 sequence (Q08188 whole entry, the tested form may be a part): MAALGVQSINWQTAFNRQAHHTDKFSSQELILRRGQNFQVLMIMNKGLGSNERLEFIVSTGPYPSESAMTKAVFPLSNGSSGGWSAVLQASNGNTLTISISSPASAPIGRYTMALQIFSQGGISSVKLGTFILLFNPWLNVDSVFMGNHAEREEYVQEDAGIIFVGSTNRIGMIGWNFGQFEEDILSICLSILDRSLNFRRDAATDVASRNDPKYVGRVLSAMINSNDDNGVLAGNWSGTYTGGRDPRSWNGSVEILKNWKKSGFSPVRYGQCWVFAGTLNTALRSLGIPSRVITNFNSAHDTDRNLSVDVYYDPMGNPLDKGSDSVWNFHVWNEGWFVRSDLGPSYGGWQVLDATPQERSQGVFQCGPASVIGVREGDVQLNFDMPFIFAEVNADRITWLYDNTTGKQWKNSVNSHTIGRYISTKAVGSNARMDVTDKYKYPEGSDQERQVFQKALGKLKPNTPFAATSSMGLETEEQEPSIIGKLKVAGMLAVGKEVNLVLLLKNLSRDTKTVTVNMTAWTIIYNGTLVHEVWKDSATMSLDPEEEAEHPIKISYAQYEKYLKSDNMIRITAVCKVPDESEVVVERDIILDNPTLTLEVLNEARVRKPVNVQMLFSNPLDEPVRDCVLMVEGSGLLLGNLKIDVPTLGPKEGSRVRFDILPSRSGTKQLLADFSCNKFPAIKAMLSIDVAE
T3 sequence (Q08188 whole entry, the tested form may be a part): as above
T1 sequence (Q08188 whole entry, chain 1 of 2, the tested form may be a part): as the sequence (Q08188 whole entry, the tested form may be a part) above
T1 sequence (Q08188 whole entry, chain 2 of 2, the tested form may be a part): as the sequence (Q08188 whole entry, the tested form may be a part) above

binding result [1]: binds
binding result [2]: binds
binding result [3]: binds
binding result [4]: binds
B1: Fab fragment of the anti-TG3 antibody DH63-B02 (Fab, V domains shown)
VH: EVQLVESGGGLVQPGRSLRLSCTASGFTFDDYAMHWVRQAPGKGLEWVSRISWNSRSIAYADSVKGRFTISRDSAKNSLYLQMNSLRTEDTALYYCAKDHYLGSDSYGMDVWGQGTTVTVSS
VL: NFMLTQPHSVSESPGKTVTISCTRSSGSIDSNYVQWYQQRPGSAPTIVIHEDNQRPSGVPDRFSGSIDTSSNSASLTISGLKTEDEADYYCQSYDPSNVVFGGGTKLTVL
notes: Fab heavy chain of the human antibody DH63-B02 from a dermatitis herpetiformis patient; Fab light chain of DH63-B02, purified on a resin for human lambda light chains; also called Fab DH63-B02; the Fab
